Results taken from the supplement of paper PMC10266784.

B1: library; numbered along this chain (parent)
chain: MAAAAAAAAEQQSSNGPVKKSMREKAVERRSVNKEHNSNFKAGYIPIDEDRLHKTGLRGRKGNLAICVIILLFILAVINLIITLVIWAVIRIGPNGCDSMEFHESGLLRFKQVSDMGVIHPLYKSTVGGRRNENLVITGNNQPIVFQQGTTKLSVENNKTSITSDIGMQFFDPRTQNILFSTDYETHEFHLPSGVKSLNVQKASTERITSNATSDLNIKVDGRAIVRGNEGVFIMGKTIEFHMGGNMELKAENSIILNGSVMVSTTRLPSSSSGDQLGSGDWVRYKLCMCADGTLFKVQVTSQNMGCQISDNPCGNTH

Variants of: B1
Test: SGCB cell-surface expression functional score (HA stain, bin4 vs bin1, normalised to synonymous) (log10 ratio); higher = more cell-surface SGCB (functional)
Protocol: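 Deep mutational scan of full-length human SGCB (YFP-SGCB-HA, NNN codon sublibraries A-F) delivered by lentivirus at low MOI into ADG-HEK293 cells stably expressing SGCA, SGCD and SGCG. YFP-positive cells were stained for surface HA on unpermeabilized cells and FACS-sorted into bins. The functional score is log10(frequency in high bin 4 / frequency in low bin 1), normalised per chunk so that synonymous variants have mean 0 and SD 0.5. Scores are the median over codons and over duplicate biological replicates; scores below -0.5 are called non-functional. Scale: negative means deleterious.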

Row | Variant | SGCB cell-surface expression functional score (log10)
1 | MAAAAAAAAEQQSSNGPVKKSMREKAVERRSVNKEHRSNFKAGYIPIDEDRLHKTGLRGRKGNLAICVIILLFILAVINLIITLVIWAVIRIGPNGCDSMEFHESGLLRFKQVSDMGVIHPLYKSTVGGRRNENLVITGNNQPIVFQQGTTKLSVENNKTSITSDIGMQFFDPRTQNILFSTDYETHEFHLPSGVKSLNVQKASTERITSNATSDLNIKVDGRAIVRGNEGVFIMGKTIEFHMGGNMELKAENSIILNGSVMVSTTRLPSSSSGDQLGSGDWVRYKLCMCADGTLFKVQVTSQNMGCQISDNPCGNTH [N37R] | -0.21
2 | MAAAAAAAAEQQSSNGPVKKSMREKAVERRSVNKEHTSNFKAGYIPIDEDRLHKTGLRGRKGNLAICVIILLFILAVINLIITLVIWAVIRIGPNGCDSMEFHESGLLRFKQVSDMGVIHPLYKSTVGGRRNENLVITGNNQPIVFQQGTTKLSVENNKTSITSDIGMQFFDPRTQNILFSTDYETHEFHLPSGVKSLNVQKASTERITSNATSDLNIKVDGRAIVRGNEGVFIMGKTIEFHMGGNMELKAENSIILNGSVMVSTTRLPSSSSGDQLGSGDWVRYKLCMCADGTLFKVQVTSQNMGCQISDNPCGNTH [N37T] | -0.11
3 | MAAAAAAAAEQQSSNGPVKKSMREKAVERRSVNKEHYSNFKAGYIPIDEDRLHKTGLRGRKGNLAICVIILLFILAVINLIITLVIWAVIRIGPNGCDSMEFHESGLLRFKQVSDMGVIHPLYKSTVGGRRNENLVITGNNQPIVFQQGTTKLSVENNKTSITSDIGMQFFDPRTQNILFSTDYETHEFHLPSGVKSLNVQKASTERITSNATSDLNIKVDGRAIVRGNEGVFIMGKTIEFHMGGNMELKAENSIILNGSVMVSTTRLPSSSSGDQLGSGDWVRYKLCMCADGTLFKVQVTSQNMGCQISDNPCGNTH [N37Y] | -0.46
4 | MAAAAAAAAEQQSSNGPVKKSMREKAVERRSVNKEHVSNFKAGYIPIDEDRLHKTGLRGRKGNLAICVIILLFILAVINLIITLVIWAVIRIGPNGCDSMEFHESGLLRFKQVSDMGVIHPLYKSTVGGRRNENLVITGNNQPIVFQQGTTKLSVENNKTSITSDIGMQFFDPRTQNILFSTDYETHEFHLPSGVKSLNVQKASTERITSNATSDLNIKVDGRAIVRGNEGVFIMGKTIEFHMGGNMELKAENSIILNGSVMVSTTRLPSSSSGDQLGSGDWVRYKLCMCADGTLFKVQVTSQNMGCQISDNPCGNTH [N37V] | -0.13
5 | MAAAAAAAAEQQSSNGPVKKSMREKAVERRSVNKEHSSNFKAGYIPIDEDRLHKTGLRGRKGNLAICVIILLFILAVINLIITLVIWAVIRIGPNGCDSMEFHESGLLRFKQVSDMGVIHPLYKSTVGGRRNENLVITGNNQPIVFQQGTTKLSVENNKTSITSDIGMQFFDPRTQNILFSTDYETHEFHLPSGVKSLNVQKASTERITSNATSDLNIKVDGRAIVRGNEGVFIMGKTIEFHMGGNMELKAENSIILNGSVMVSTTRLPSSSSGDQLGSGDWVRYKLCMCADGTLFKVQVTSQNMGCQISDNPCGNTH [N37S] | -0.21
6 | MAAAAAAAAEQQSSNGPVKKSMREKAVERRSVNKEHWSNFKAGYIPIDEDRLHKTGLRGRKGNLAICVIILLFILAVINLIITLVIWAVIRIGPNGCDSMEFHESGLLRFKQVSDMGVIHPLYKSTVGGRRNENLVITGNNQPIVFQQGTTKLSVENNKTSITSDIGMQFFDPRTQNILFSTDYETHEFHLPSGVKSLNVQKASTERITSNATSDLNIKVDGRAIVRGNEGVFIMGKTIEFHMGGNMELKAENSIILNGSVMVSTTRLPSSSSGDQLGSGDWVRYKLCMCADGTLFKVQVTSQNMGCQISDNPCGNTH [N37W] | -0.53
7 | MAAAAAAAAEQQSSNGPVKKSMREKAVERRSVNKEHNLNFKAGYIPIDEDRLHKTGLRGRKGNLAICVIILLFILAVINLIITLVIWAVIRIGPNGCDSMEFHESGLLRFKQVSDMGVIHPLYKSTVGGRRNENLVITGNNQPIVFQQGTTKLSVENNKTSITSDIGMQFFDPRTQNILFSTDYETHEFHLPSGVKSLNVQKASTERITSNATSDLNIKVDGRAIVRGNEGVFIMGKTIEFHMGGNMELKAENSIILNGSVMVSTTRLPSSSSGDQLGSGDWVRYKLCMCADGTLFKVQVTSQNMGCQISDNPCGNTH [S38L] | -0.26
8 | MAAAAAAAAEQQSSNGPVKKSMREKAVERRSVNKEHNINFKAGYIPIDEDRLHKTGLRGRKGNLAICVIILLFILAVINLIITLVIWAVIRIGPNGCDSMEFHESGLLRFKQVSDMGVIHPLYKSTVGGRRNENLVITGNNQPIVFQQGTTKLSVENNKTSITSDIGMQFFDPRTQNILFSTDYETHEFHLPSGVKSLNVQKASTERITSNATSDLNIKVDGRAIVRGNEGVFIMGKTIEFHMGGNMELKAENSIILNGSVMVSTTRLPSSSSGDQLGSGDWVRYKLCMCADGTLFKVQVTSQNMGCQISDNPCGNTH [S38I] | -0.09
9 | MAAAAAAAAEQQSSNGPVKKSMREKAVERRSVNKEHNANFKAGYIPIDEDRLHKTGLRGRKGNLAICVIILLFILAVINLIITLVIWAVIRIGPNGCDSMEFHESGLLRFKQVSDMGVIHPLYKSTVGGRRNENLVITGNNQPIVFQQGTTKLSVENNKTSITSDIGMQFFDPRTQNILFSTDYETHEFHLPSGVKSLNVQKASTERITSNATSDLNIKVDGRAIVRGNEGVFIMGKTIEFHMGGNMELKAENSIILNGSVMVSTTRLPSSSSGDQLGSGDWVRYKLCMCADGTLFKVQVTSQNMGCQISDNPCGNTH [S38A] | -0.36
10 | MAAAAAAAAEQQSSNGPVKKSMREKAVERRSVNKEHNHNFKAGYIPIDEDRLHKTGLRGRKGNLAICVIILLFILAVINLIITLVIWAVIRIGPNGCDSMEFHESGLLRFKQVSDMGVIHPLYKSTVGGRRNENLVITGNNQPIVFQQGTTKLSVENNKTSITSDIGMQFFDPRTQNILFSTDYETHEFHLPSGVKSLNVQKASTERITSNATSDLNIKVDGRAIVRGNEGVFIMGKTIEFHMGGNMELKAENSIILNGSVMVSTTRLPSSSSGDQLGSGDWVRYKLCMCADGTLFKVQVTSQNMGCQISDNPCGNTH [S38H] | 0.06
11 | MAAAAAAAAEQQSSNGPVKKSMREKAVERRSVNKEHNNNFKAGYIPIDEDRLHKTGLRGRKGNLAICVIILLFILAVINLIITLVIWAVIRIGPNGCDSMEFHESGLLRFKQVSDMGVIHPLYKSTVGGRRNENLVITGNNQPIVFQQGTTKLSVENNKTSITSDIGMQFFDPRTQNILFSTDYETHEFHLPSGVKSLNVQKASTERITSNATSDLNIKVDGRAIVRGNEGVFIMGKTIEFHMGGNMELKAENSIILNGSVMVSTTRLPSSSSGDQLGSGDWVRYKLCMCADGTLFKVQVTSQNMGCQISDNPCGNTH [S38N] | 0.37
12 | MAAAAAAAAEQQSSNGPVKKSMREKAVERRSVNKEHNCNFKAGYIPIDEDRLHKTGLRGRKGNLAICVIILLFILAVINLIITLVIWAVIRIGPNGCDSMEFHESGLLRFKQVSDMGVIHPLYKSTVGGRRNENLVITGNNQPIVFQQGTTKLSVENNKTSITSDIGMQFFDPRTQNILFSTDYETHEFHLPSGVKSLNVQKASTERITSNATSDLNIKVDGRAIVRGNEGVFIMGKTIEFHMGGNMELKAENSIILNGSVMVSTTRLPSSSSGDQLGSGDWVRYKLCMCADGTLFKVQVTSQNMGCQISDNPCGNTH [S38C] | -0.16
13 | MAAAAAAAAEQQSSNGPVKKSMREKAVERRSVNKEHNFNFKAGYIPIDEDRLHKTGLRGRKGNLAICVIILLFILAVINLIITLVIWAVIRIGPNGCDSMEFHESGLLRFKQVSDMGVIHPLYKSTVGGRRNENLVITGNNQPIVFQQGTTKLSVENNKTSITSDIGMQFFDPRTQNILFSTDYETHEFHLPSGVKSLNVQKASTERITSNATSDLNIKVDGRAIVRGNEGVFIMGKTIEFHMGGNMELKAENSIILNGSVMVSTTRLPSSSSGDQLGSGDWVRYKLCMCADGTLFKVQVTSQNMGCQISDNPCGNTH [S38F] | -0.14
14 | MAAAAAAAAEQQSSNGPVKKSMREKAVERRSVNKEHNENFKAGYIPIDEDRLHKTGLRGRKGNLAICVIILLFILAVINLIITLVIWAVIRIGPNGCDSMEFHESGLLRFKQVSDMGVIHPLYKSTVGGRRNENLVITGNNQPIVFQQGTTKLSVENNKTSITSDIGMQFFDPRTQNILFSTDYETHEFHLPSGVKSLNVQKASTERITSNATSDLNIKVDGRAIVRGNEGVFIMGKTIEFHMGGNMELKAENSIILNGSVMVSTTRLPSSSSGDQLGSGDWVRYKLCMCADGTLFKVQVTSQNMGCQISDNPCGNTH [S38E] | 0.31
15 | MAAAAAAAAEQQSSNGPVKKSMREKAVERRSVNKEHNGNFKAGYIPIDEDRLHKTGLRGRKGNLAICVIILLFILAVINLIITLVIWAVIRIGPNGCDSMEFHESGLLRFKQVSDMGVIHPLYKSTVGGRRNENLVITGNNQPIVFQQGTTKLSVENNKTSITSDIGMQFFDPRTQNILFSTDYETHEFHLPSGVKSLNVQKASTERITSNATSDLNIKVDGRAIVRGNEGVFIMGKTIEFHMGGNMELKAENSIILNGSVMVSTTRLPSSSSGDQLGSGDWVRYKLCMCADGTLFKVQVTSQNMGCQISDNPCGNTH [S38G] | 0.07
16 | MAAAAAAAAEQQSSNGPVKKSMREKAVERRSVNKEHNKNFKAGYIPIDEDRLHKTGLRGRKGNLAICVIILLFILAVINLIITLVIWAVIRIGPNGCDSMEFHESGLLRFKQVSDMGVIHPLYKSTVGGRRNENLVITGNNQPIVFQQGTTKLSVENNKTSITSDIGMQFFDPRTQNILFSTDYETHEFHLPSGVKSLNVQKASTERITSNATSDLNIKVDGRAIVRGNEGVFIMGKTIEFHMGGNMELKAENSIILNGSVMVSTTRLPSSSSGDQLGSGDWVRYKLCMCADGTLFKVQVTSQNMGCQISDNPCGNTH [S38K] | 0.36
17 | MAAAAAAAAEQQSSNGPVKKSMREKAVERRSVNKEHNDNFKAGYIPIDEDRLHKTGLRGRKGNLAICVIILLFILAVINLIITLVIWAVIRIGPNGCDSMEFHESGLLRFKQVSDMGVIHPLYKSTVGGRRNENLVITGNNQPIVFQQGTTKLSVENNKTSITSDIGMQFFDPRTQNILFSTDYETHEFHLPSGVKSLNVQKASTERITSNATSDLNIKVDGRAIVRGNEGVFIMGKTIEFHMGGNMELKAENSIILNGSVMVSTTRLPSSSSGDQLGSGDWVRYKLCMCADGTLFKVQVTSQNMGCQISDNPCGNTH [S38D] | 0.3
18 | MAAAAAAAAEQQSSNGPVKKSMREKAVERRSVNKEHNMNFKAGYIPIDEDRLHKTGLRGRKGNLAICVIILLFILAVINLIITLVIWAVIRIGPNGCDSMEFHESGLLRFKQVSDMGVIHPLYKSTVGGRRNENLVITGNNQPIVFQQGTTKLSVENNKTSITSDIGMQFFDPRTQNILFSTDYETHEFHLPSGVKSLNVQKASTERITSNATSDLNIKVDGRAIVRGNEGVFIMGKTIEFHMGGNMELKAENSIILNGSVMVSTTRLPSSSSGDQLGSGDWVRYKLCMCADGTLFKVQVTSQNMGCQISDNPCGNTH [S38M] | -0.54
19 | MAAAAAAAAEQQSSNGPVKKSMREKAVERRSVNKEHNPNFKAGYIPIDEDRLHKTGLRGRKGNLAICVIILLFILAVINLIITLVIWAVIRIGPNGCDSMEFHESGLLRFKQVSDMGVIHPLYKSTVGGRRNENLVITGNNQPIVFQQGTTKLSVENNKTSITSDIGMQFFDPRTQNILFSTDYETHEFHLPSGVKSLNVQKASTERITSNATSDLNIKVDGRAIVRGNEGVFIMGKTIEFHMGGNMELKAENSIILNGSVMVSTTRLPSSSSGDQLGSGDWVRYKLCMCADGTLFKVQVTSQNMGCQISDNPCGNTH [S38P] | -0.2
